Source: patent US20140073518A1
Like-named read-outs stand apart in the source and are kept apart here. Ends that are not written are not given here.

Columns and labels:
[1] = target: integrins on PC3 cells (adhesion to vitronectin); assay: cell-based or functional assay
[2] = target: human umbilical vein endothelial cells (HUVECs), which express medium levels of the αvβ3, αvβ5 integrins, the Met receptor, and a high level of the α5β1 integrin; assay: HUVEC cell binding assay
[3] = target: integrins on PC3 cells (adhesion to vitronectin); assay: cell-based or functional assay; remark: listed apart in the source
[4] = target: integrins on PC3 cells (adhesion to vitronectin)

B1: EETI2.5F-Aras4 fusion protein (designed binder)
chain: DYKDDDDKPRGCPRPRGDNPPLTCSQDSDCLAGCVCGPNGFCGYAEGQGKRRNTIHEFKKSAKTTLIKIDPALRIKTEKANTADQCANRCTRSKGLPFTCKAFVFDKARKRCLWFPFNSMSSGVKKEFGHEFDLYENKAYIRDCIIGRGRNYRGTVSITKSGIKCQPWSAMIPHEHSFLPSSYRGEDLRENYCRNPRGEEGGPWCYTSDPEVRYEVCDIPQCSEVETRHHHHHH
- Half-maximal inhibitor concentration, inhibition of PC3 cell adhesion to human vitronectin [1]: 20 to 40 nM

B2: EETI2.5F-M2.2(D127A) fusion protein (designed binder)
chain: DYKDDDDKPRGCPRPRGDNPPLTCSQDSDCLAGCVCGPNGFCGYAEGQRKRRNTIHEFKKSAKTTLIKIDPALKIKTEKVNTADQCANRCTRNKGLPFTCKAFVFDKARKRCLWFPFNSMSSGVKKEFGHEFDLYENKDYIRACIIGNGRSYRGTVSITKSGIKCQPWSSMIPHEHSFLPSSYRGEDLRENYCRNPRGEEGGPWCFTSDPEVRYEVCDIPQCSEVETRHHHHHH
- Kd [2]: 4.7 nM

Binder: GCPRPRGDNPPLTCKQDSDCLAGCVCGPNGFCG (designed binder) [EETI-II mutant 2.5F]
- Half-maximal inhibitor concentration, inhibition of PC3 cell adhesion to human vitronectin [3]: 20 to 40 nM

B3: AgRP mutant 7A (designed binder)
chain: GCVRLHESCLGQQVPCCDPAATCYCSGRGDNDLVCYCR
modifications: ends and bridges not checked; also: four disulfide bonds, pairings not given here
- Half-maximal inhibitor concentration, inhibition of PC3 cell adhesion to human vitronectin [1]: 20 to 40 nM

B4: knottin 2.5F-Fc (EETI 2.5F fused to the Fc domain of mouse Ig2a) (Fc fusion)
chain: GCPRPRGDNPPLTCKQDSDCLAGCVCGPNGFCGEPRGPTIKPCPPCKCPAPNLLGGPSVFIFPPKIKDVLMISLSPIVTCVVVDVSEDDPDVQISWFVNNVEVHTAQTQTHREDYNSTLRVVSALPIQHQDWMSGKEFKCKVNNKDLPAPIERTISKPKGSVRAPQVYVLPPPEEEMTKKQVTLTCMVTDFMPEDIYVEWTNNGKTELNYKNTEPVLDSDGSYFMYSKLRVEKKNWVERNSYSCSVVHEGLHNHHTTKSFSRTPGK
- IC50 (read off the curve), PC3 cell adhesion to vitronectin [4]: 10 nM

B5: knottin 2.5D-Fc (EETI 2.5D fused to the Fc domain of mouse Ig2a) (Fc fusion)
chain: GCPQGRGDWAPTSCKQDSDCRAGCVCGPNGFCGEPRGPTIKPCPPCKCPAPNLLGGPSVFIFPPKIKDVLMISLSPIVTCVVVDVSEDDPDVQISWFVNNVEVHTAQTQTHREDYNSTLRVVSALPIQHQDWMSGKEFKCKVNNKDLPAPIERTISKPKGSVRAPQVYVLPPPEEEMTKKQVTLTCMVTDFMPEDIYVEWTNNGKTELNYKNTEPVLDSDGSYFMYSKLRVEKKNWVERNSYSCSVVHEGLHNHHTTKSFSRTPGK
- IC50 (read off the curve), PC3 cell adhesion to vitronectin [4]: 10 nM

B6: AgRP7A-Aras4 fusion protein (soluble, FLAG and His tagged) (designed binder)
chain: DYKDDDDKPRGCVRLHESCLGQQVPCCDPAATCYCSGRGDNDLVCYCRYAEGQGKRRNTIHEFKKSAKTTLIKIDPALRIKTEKANTADQCANRCTRSKGLPFTCKAFVFDKARKRCLWFPFNSMSSGVKKEFGHEFDLYENKAYIRDCIIGRGRNYRGTVSITKSGIKCQPWSAMIPHEHSFLPSSYRGEDLRENYCRNPRGEEGGPWCYTSDPEVRYEVCDIPQCSEVETRHHHHHH
- Half-maximal inhibitor concentration, inhibition of PC3 cell adhesion to human vitronectin [1]: 20 to 40 nM

B7: AgRp7A-M2.2(D127A) fusion protein (designed binder)
chain: DYKDDDDKPRGCVRLHESCLGQQVPCCDPAATCYCSGRGDNDLVCYCRYAEGQRKRRNTIHEFKKSAKTTLIKIDPALKIKTEKVNTADQCANRCTRNKGLPFTCKAFVFDKARKRCLWFPFNSMSSGVKKEFGHEFDLYENKDYIRACIIGNGRSYRGTVSITKSGIKCQPWSSMIPHEHSFLPSSYRGEDLRENYCRNPRGEEGGPWCFTSDPEVRYEVCDIPQCSEVETRHHHHHH
- Kd [2]: 9.4 nM
